# Source: publication PMC3367207 (Nucleic Acids Research, 2012)
# B1: FokI restriction endonuclease (enzyme, UniProt P14870 1-579, looked up)
# chain: MVSKIRTFGWVQNPGKFENLKRVVQVFDRNSKVHNEVKNIKIPTLVKESKIQKELVAIMNQHDLIYTYKELVGTGTSIRSEAPCDAIIQATIADQGNKKGYIDNWSSDGFLRWAHALGFIEYINKSDSFVITDVGLAYSKSADGSAIEKEILIEAISSYPPAIRILTLLEDGQHLTKFDLGKNLGFSGESGFTSLPEGILLDTLANAMPKDKGEIRNNWEGSSDKYARMIGGWLDKLGLVKQGKKEFIIPTLGKPDNKEFISHAFKITGEGLKVLRRAKGSTKFTRVPKRVYWEMLATNLTDKEYVRTRRALILEILIKAGSLKIEQIQDNLKKLGFDEVIETIENDIKGLINTGIFIEIKGRFYQLKDHILQFVIPNRGVTKQLVKSELEEKKSELRHKLKYVPHEYIELIEIARNSTQDRILEMKVMEFFMKVYGYRGKHLGGSRKPDGAIYTVGSPIDYGVIVDTKAYSGGYNLPIGQADEMQRYVEENQTRNKHINPNEWWKVYPSSVTEFKFLFVSGHFKGNYKAQLTRLNHITNCNGAVLSVEELLIGGEMIKAGTLTLEEVRRKFNNGEINF
# Molecular target: the molecule itself
# Assay: FRET or BRET
protein,measurement,value
B1,binding result,binds
